Measured values: publication PMC3062965 (Apoptosis : an international journal on programmed cell …, 2010)
Where “and” joins values, the source holds several entries; their conditions need not be identical. Equal entries are not always repeated.

Target: full-length RAIDD (1-199) (human, UniProt P78560 1-199)
Assay: SEC-MALS

Sequence of full-length RAIDD (1-199) (P78560 whole entry): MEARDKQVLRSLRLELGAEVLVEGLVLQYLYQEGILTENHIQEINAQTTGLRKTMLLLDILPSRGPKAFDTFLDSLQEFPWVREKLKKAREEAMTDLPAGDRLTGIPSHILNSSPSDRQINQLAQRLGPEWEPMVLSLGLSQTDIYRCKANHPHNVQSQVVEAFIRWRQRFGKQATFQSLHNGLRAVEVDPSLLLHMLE

B1: PIDD DD (777-883) (domain or fragment, human, UniProt Q9HB75 777-883, looked up)
chain: LNLGDAETGFLTQSNLLSVAGRLGLDWPAVALHLGVSYREVQRIRHEFRDDLDEQIRHMLFSWAERQAGQPGAVGLLVQALEQSDRQDVAEEVRAVLELGRRKYQDS
  stoichiometry N: 7 RAIDD per complex and 5 PIDD DD per complex
